US20210261643A1, “INHIBITORS OF P-TEFB MEDIATED TRANSCRIPTION” (The Regents of the University of California, priority 2018, published 2021)

Key:
[1] = tested on: Tat-dependent gene expression from the HIV promoter; assay: Luciferase reporter assay, pLTR-Luc co-transfected with pTat and pHT in 293T cells; type: cell-based; conditions: 293T cells, pHT:pTat ratio 2:1
Excerpt: FIGS. 2A, 2B, and 2C. A HEXIM1-Tat fusion peptide inhibits gene expression from the HIV promoter. FIG. 2A. Structure of the HEXIM1-Tat fusion peptides used in the study. The functional domains used from HEXIM1 and Tat include a HEXIM1 Arginine Rich Motif (ARM, black box, residues 150-162) that binds RNA, a HEXIM1 inhibitory domain (ID, light grey box, residues 200-211) that inhibits CDK9 through a PYNT motif, and Tat transactivation domain (AD, dark grey box, residues 1-48) that binds to P-TEFb. The conceptual schemes are not drawn to scale. FIG. 2B. Transient expression of HT1 inhibits Tat-induced LTR-driven Luc expression. Upper panel: a schema depicts the reporter assay. A luciferase reporter gene (Luc) is under the control of the HIV promoter (P-HIV) and can be activated by ectopically expressed Tat. The Luc assay was used to titrate the inhibitory effect of HT1-3 on P-HIV transactivation by Tat. Middle panel: increasing amounts of m:HT1, m:HT2 or m:HT3 expressing plasmid (pHT) were co-transfected in 293T cells with a plasmid (pTat) expressing f:Tat and another (pLTR-Luc) expressing Luc under the control of the HIV promoter. Luc activity was plotted as % activity relative to control (empty vector used instead of pHT), depending on the transfected pHT:pTat ratio. Error bars in the graph represent standard deviation from triplicate experiments. FIG. 2C. Transient expression of HT1 inhibits Luc expression from HIV-1 NL43ΔenvLuc. Top schema depicts the reporter assay. A luciferase reporter gene (Luc) is inserted in a replication-defective HIV-1 molecular clone (pNL43ΔenvLuc) in which Luc and Tat are under the control of the HIV promoter (P-HIV). A Luc assay was used to titrate the inhibitory effect of HT1-3 on P-HIV transactivation by Tat. Bottom: increasing amounts of pHT1 were co-transfected in 293T cells with pNL43ΔenvLuc. Luc activity was plotted as % activity relative to control (empty vector used instead of pHT), depending on the transfected amounts of pHT1. Error bars in the graph represent standard deviation from triplicate experiments.
Luciferase (Luc) reporter assays were performed to titrate the potency of each chimera to inhibit Tat-dependent gene expression from the HIV promoter. Effector plasmids included pHT1-3 and pTat, which respectively expressed a Myc-epitope tag chimera (m:HT1-3) and a Flag-epitope tagged Tat (f:Tat). pHT1, pHT2 or pHT3 was transiently co-transfected in 293T cells with pTat and a Luc reporter gene under the control of the HIV promoter (P-HIV, expressed from the plasmid pLTR-Luc). […] Finally, HT1 lead to a 4-fold decrease in Luc expression at a 2:1 ratio. […] Similar results were obtained when co-transfecting pHT1-3 and pTat in NIH1 cells, which stably carry an LTR-Luc reporter gene. Thus, we selected HT1 for further investigation.

HIV TAR RNA = assay: RNA immunoprecipitation and RT-qPCR with TAR-specific primers in 293T cells; type: binding
Experimental: FIGS. 3A, 3B, 3C and 3D. HT1 prevents Tat from bringing active P-TEFb to TAR. FIG. 3A: HT1 inhibits the kinase activity of P-TEFb subunit CDK9. m:HT1 and/or f:Tat were transiently expressed in 293T cells. Cell lysates were used for IP using anti-Myc Ab (lanes 2-4), or control IgG (lane 1). Immunoprecipitates were incubated with ATP and recombinant GST-CTD proteins for in vitro kinase assay. Six replicate experiments were performed, and mean relative kinase activities are shown in the bar graph to the right. FIG. 3B: HT1 binds to TAR. m:HT1 or m:Tat (or empty vector, EV, as a control) was transiently co-expressed with TAR RNA-expressing pU16TAR in 293T cells. Cell lysates were used for IP using anti-Myc Ab or control IgG. RNA was purified from the immunoprecipitates and submitted to RT-qPCR using TAR-specific primers. Relative TAR enrichment was calculated as qPCR count using anti-Myc Ab minus using IgG, and normalized to EV. Error bars represent standard deviation from triplicate qPCR assays. […] Error bars represent standard deviation from triplicate qPCR assays. FIG. 3D: HT1 competes with Tat for TAR binding. m:HT1 and/or f:Tat were transiently co-expressed with TAR RNA-expressing pU16TAR in 293T cells. Cell lysates were used for IP using anti-Myc Ab or control IgG. RNA was purified from the immunoprecipitates and submitted to RT-qPCR using TAR-specific primers (upper panel). Relative TAR enrichment was calculated as qPCR count using anti-Myc Ab minus using IgG, and normalized to EV. Error bars represent standard deviation from triplicate qPCR assays.
(§1) Finally, since HEXIM1 ARM resembles the TAR-binding domain from Tat, we investigated whether HT1 could bind to HIV TAR. m:HT1 or m:Tat was co-expressed in 293T cells with TAR RNA, expressed under RNA Polymerase III dependent H1 promoter, and immunoprecipitated using anti-Myc Ab or IgG as a control. TAR RNAs co-immunoprecipitated with HT1 or Tat were quantified by RT-qPCR analysis. […] To test whether HT1 affects Tat-TAR interactions, increasing amounts of m:HT1 were also co-expressed with a fixed amount of f:Tat and TAR. […] As expected, HT1 also bound to endogenous 7SK snRNA.

7SK snRNA = assay: Binding to endogenous 7SK snRNA
Excerpt: as §1

B1: HT1 (protein)
chain: KKKHRRRPSKKKRHWKPYYKLTWEEKKKFDEKQSLRASRIRAEMFAKGQPVAPYNTTQFLMDDHDQEEPDLVDMEPVDPYLEPWKHPGSQPRTACNNCYCKKCCFHCYACFTRKGLGISYG
modifications: left off: small tags and cut ends
decrease in Luc expression from the HIV promoter [1]: 4 fold | immunoprecipitation of TAR RNA (in words) (HIV TAR RNA; 293T cells, anti-Myc Ab, RT-qPCR): immunoprecipitated TAR | amounts of TAR RNA co-immunoprecipitated with f:Tat (HIV TAR RNA; fixed amount of f:Tat and TAR, increasing m:HT1, anti-Flag Ab): decreased progressively | TAR bound, normalized by protein levels of m:HT1 and m:Tat (HIV TAR RNA; normalized to protein in input lysate): at least as much TAR as m:Tat | binding to endogenous 7SK snRNA (7SK snRNA): bound
